Laboratory results taken from US7501496.

How the values were obtained:
[1] = target: human FcγRIIb on stably transfected IIA1.6 cells (human) (UniProt P31994); assay: flow cytometry on IIA1.6 cells with human FcγRIIb, maximum binding at 10 µg/ml
[2] = target: human FcγRIIa on stably transfected IIA1.6 cells (human) (UniProt P12318); assay: flow cytometry on IIA1.6 cells with human FcγRIIa, maximum binding at 10 µg/ml
[3] = target: complement factor C1q (recombinant C1q) (human) (UniProt P02745); assay: ELISA; plate coated with serially diluted antibody, recombinant C1q added, anti-C1q detection
Sequence of complement factor C1q (recombinant C1q) (human) (P02745 23-245 limits assumed, chain 1 of 3): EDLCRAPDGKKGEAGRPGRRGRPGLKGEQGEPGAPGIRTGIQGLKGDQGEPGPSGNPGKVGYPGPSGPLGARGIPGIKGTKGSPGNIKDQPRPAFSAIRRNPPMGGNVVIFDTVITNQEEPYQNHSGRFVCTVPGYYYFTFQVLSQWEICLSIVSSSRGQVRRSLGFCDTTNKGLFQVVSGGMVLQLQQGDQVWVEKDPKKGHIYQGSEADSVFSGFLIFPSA
Sequence of complement factor C1q (recombinant C1q) (human) (P02746 28-253 limits assumed, chain 2 of 3, further chain): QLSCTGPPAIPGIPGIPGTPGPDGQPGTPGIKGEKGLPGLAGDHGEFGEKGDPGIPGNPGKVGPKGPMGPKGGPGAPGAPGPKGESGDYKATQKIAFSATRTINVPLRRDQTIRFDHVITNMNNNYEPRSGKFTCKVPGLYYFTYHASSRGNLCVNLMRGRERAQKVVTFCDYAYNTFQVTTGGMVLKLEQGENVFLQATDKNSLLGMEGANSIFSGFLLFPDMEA
Sequence of complement factor C1q (recombinant C1q) (human) (P02747 29-245 limits assumed, chain 3 of 3, further chain): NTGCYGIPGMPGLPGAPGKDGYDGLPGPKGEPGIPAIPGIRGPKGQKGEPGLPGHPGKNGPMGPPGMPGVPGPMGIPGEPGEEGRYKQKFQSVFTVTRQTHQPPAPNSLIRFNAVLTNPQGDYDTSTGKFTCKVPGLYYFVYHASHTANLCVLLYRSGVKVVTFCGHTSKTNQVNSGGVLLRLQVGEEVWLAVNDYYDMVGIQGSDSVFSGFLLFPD

[4] = target: human OX40L expressed on cells (K562-hOX40L cells; HUVEC) (human) (UniProt P23510); assay: FACS on HUVEC; <KLH> 10 µg/ml 24 h, no staining antibody, secondary anti-human IgG-Alexa488 (media control 5.39)
Sequence of human OX40L expressed on cells (K562-hOX40L cells; HUVEC) (human) (P23510 whole entry, the tested form may be a part): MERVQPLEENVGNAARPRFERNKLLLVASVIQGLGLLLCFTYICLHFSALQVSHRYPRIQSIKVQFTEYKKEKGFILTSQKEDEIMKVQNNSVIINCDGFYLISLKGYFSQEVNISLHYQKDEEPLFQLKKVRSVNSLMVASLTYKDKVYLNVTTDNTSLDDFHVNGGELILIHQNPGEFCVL

[5] = target: human OX40L expressed on cells (K562-hOX40L cells; HUVEC) (human) (UniProt P23510); assay: FACS on HUVEC; <KLH> 10 µg/ml 2.5 h, no staining antibody, secondary anti-human IgG-Alexa488 (media control 5.17)
[6] = target: complement factor C1q (recombinant C1q) (human) (UniProt P02745); assay: ELISA; coated antibody, recombinant C1q, maximum binding at 10 µg/ml
[7] = target: activated C3c (generated via activation of C3, from human pooled serum) (human) (UniProt P01024); assay: cell-based or functional assay
Sequence of activated C3c (generated via activation of C3, from human pooled serum) (human) (P01024 23-1663 limits assumed): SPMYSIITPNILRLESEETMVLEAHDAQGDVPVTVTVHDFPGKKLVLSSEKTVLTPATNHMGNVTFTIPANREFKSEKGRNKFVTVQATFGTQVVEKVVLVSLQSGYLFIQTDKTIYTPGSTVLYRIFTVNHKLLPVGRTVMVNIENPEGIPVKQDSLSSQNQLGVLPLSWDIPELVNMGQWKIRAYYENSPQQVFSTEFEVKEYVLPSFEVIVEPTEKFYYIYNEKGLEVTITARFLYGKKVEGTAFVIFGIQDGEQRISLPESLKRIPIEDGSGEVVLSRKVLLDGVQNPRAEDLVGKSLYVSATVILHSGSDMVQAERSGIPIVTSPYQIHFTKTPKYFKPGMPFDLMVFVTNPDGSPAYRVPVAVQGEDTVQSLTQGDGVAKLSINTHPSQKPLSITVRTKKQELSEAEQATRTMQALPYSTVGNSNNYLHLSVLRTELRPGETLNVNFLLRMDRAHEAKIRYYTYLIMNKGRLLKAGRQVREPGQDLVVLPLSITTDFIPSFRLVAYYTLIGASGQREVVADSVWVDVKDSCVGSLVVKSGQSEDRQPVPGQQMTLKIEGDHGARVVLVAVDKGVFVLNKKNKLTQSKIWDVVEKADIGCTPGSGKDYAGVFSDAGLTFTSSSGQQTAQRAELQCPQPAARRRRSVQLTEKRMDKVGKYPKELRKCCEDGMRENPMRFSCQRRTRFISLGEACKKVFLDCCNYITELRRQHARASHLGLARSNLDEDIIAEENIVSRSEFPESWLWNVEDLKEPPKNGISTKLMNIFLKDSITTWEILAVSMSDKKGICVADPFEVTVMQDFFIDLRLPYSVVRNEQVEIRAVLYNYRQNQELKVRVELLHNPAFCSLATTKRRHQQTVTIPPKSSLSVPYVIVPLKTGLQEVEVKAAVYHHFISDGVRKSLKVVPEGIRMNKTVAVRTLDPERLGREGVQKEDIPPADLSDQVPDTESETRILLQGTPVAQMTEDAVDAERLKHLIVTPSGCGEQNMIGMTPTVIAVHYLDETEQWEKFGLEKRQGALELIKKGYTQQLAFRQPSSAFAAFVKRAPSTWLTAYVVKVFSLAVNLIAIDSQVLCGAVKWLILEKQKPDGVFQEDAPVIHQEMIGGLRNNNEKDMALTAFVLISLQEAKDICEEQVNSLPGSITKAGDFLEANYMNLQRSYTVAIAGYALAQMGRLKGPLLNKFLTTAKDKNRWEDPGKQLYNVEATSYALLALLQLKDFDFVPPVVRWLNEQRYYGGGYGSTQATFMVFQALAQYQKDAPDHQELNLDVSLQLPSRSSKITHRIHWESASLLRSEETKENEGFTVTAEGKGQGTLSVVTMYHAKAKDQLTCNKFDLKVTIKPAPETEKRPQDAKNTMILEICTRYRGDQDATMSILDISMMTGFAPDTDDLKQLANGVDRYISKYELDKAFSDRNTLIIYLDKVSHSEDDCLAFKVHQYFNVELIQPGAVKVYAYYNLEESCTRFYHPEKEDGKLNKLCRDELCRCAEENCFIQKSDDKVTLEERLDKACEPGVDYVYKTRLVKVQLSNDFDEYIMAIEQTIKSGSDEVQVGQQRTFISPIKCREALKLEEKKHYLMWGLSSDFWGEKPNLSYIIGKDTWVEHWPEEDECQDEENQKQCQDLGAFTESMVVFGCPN

[8] = target: human OX40L expressed on cells (K562-hOX40L cells; HUVEC) (human) (UniProt P23510); assay: blocking FACS on K562_OX40L cells: antibody as competitor, blocked ligand Dig-labelled hOX40:hFc, read with anti-digoxigenin-fluorescein
[9] = target: human OX40L expressed on cells (K562-hOX40L cells; HUVEC) (human) (UniProt P23510); assay: FACS on HUVEC; <KLH> 2.5 h, then staining with TAG-34, secondary anti-murine IgG-Alexa488
[10] = target: Recombinant soluble human OX40L fused to a Histidine tag (human) (UniProt P23510); assay: SPR competition; hOX40L-His (10 nM) preincubated with antibody (0.78-100 nM), injected over immobilized OX40-hFc
Sequence of Recombinant soluble human OX40L fused to a Histidine tag (human) (P23510 51-183): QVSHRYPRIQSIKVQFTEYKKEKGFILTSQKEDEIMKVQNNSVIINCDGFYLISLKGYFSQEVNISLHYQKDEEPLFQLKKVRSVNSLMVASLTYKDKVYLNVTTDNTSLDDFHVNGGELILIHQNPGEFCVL

[11] = target: human OX40L expressed on cells (K562-hOX40L cells; HUVEC) (human) (UniProt P23510); assay: FACS on HUVEC; media control 2.5 h, then staining with TAG-34, secondary anti-murine IgG-Alexa488
[12] = target: human OX40L expressed on cells (K562-hOX40L cells; HUVEC) (human) (UniProt P23510); assay: flow cytometry on K562-hOX40L cells, FITC rabbit anti-mouse IgG
[13] = target: human OX40L expressed on cells (K562-hOX40L cells; HUVEC) (human) (UniProt P23510); assay: FACS on HUVEC; media control 24 h, then staining with TAG-34, secondary anti-murine IgG-Alexa488
[14] = target: human OX40L expressed on cells (K562-hOX40L cells; HUVEC) (human) (UniProt P23510); assay: FACS on HUVEC; TAG-34 10 µg/ml 24 h, no restaining, secondary anti-murine IgG-Alexa488 (down-modulation of hOX40L)
[15] = target: human OX40L expressed on cells (K562-hOX40L cells; HUVEC) (human) (UniProt P23510); assay: FACS on HUVEC; TAG-34 10 µg/ml 2.5 h, no restaining, secondary anti-murine IgG-Alexa488 (down-modulation of hOX40L)
[16] = target: human OX40L expressed on cells (K562-hOX40L cells; HUVEC) (human) (UniProt P23510); assay: FACS on HUVEC; TAG34 10 µg/ml 24 h, restaining with TAG-34, secondary anti-murine IgG-Alexa488 (down-modulation of hOX40L)
[17] = target: human OX40L expressed on cells (K562-hOX40L cells; HUVEC) (human) (UniProt P23510); assay: FACS on HUVEC; TAG34 10 µg/ml 2.5 h, restaining with TAG-34, secondary anti-murine IgG-Alexa488 (down-modulation of hOX40L)
[18] = target: human OX40L expressed on cells (K562-hOX40L cells; HUVEC) (human) (UniProt P23510); assay: cell-based or functional assay
[19] = target: human OX40L expressed on cells (K562-hOX40L cells; HUVEC) (human) (UniProt P23510); assay: FACS on HUVEC; <KLH> 24 h, then staining with TAG-34, secondary anti-murine IgG-Alexa488
[20] = target: Recombinant soluble human OX40L fused to a Histidine tag (human) (UniProt P23510); assay: SPR, Biacore 3000; antibody captured via anti-Fcγ on CM5, hOX40L-His as analyte, 1:1 Langmuir fit

Sequence of human FcγRIIa on stably transfected IIA1.6 cells (human) (P12318 34-317): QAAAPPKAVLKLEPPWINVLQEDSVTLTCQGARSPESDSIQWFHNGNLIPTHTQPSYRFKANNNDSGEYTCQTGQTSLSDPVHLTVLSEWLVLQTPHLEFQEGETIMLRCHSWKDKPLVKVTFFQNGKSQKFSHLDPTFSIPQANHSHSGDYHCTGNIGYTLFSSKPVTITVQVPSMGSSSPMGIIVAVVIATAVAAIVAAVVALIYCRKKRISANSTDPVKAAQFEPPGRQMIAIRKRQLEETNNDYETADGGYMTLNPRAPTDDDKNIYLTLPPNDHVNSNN
Sequence of human FcγRIIb on stably transfected IIA1.6 cells (human) (P31994 43-310): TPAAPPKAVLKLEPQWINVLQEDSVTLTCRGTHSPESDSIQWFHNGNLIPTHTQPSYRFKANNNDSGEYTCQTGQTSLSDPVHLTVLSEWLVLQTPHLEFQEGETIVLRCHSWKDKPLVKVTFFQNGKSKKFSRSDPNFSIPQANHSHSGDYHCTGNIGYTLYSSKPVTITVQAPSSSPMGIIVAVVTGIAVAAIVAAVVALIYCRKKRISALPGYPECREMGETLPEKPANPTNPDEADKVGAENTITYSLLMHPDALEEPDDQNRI

“human IgG3 (The Binding Site), control antibody” gave a Bmax (MFI) [1] of 419 MFI and a Bmax (MFI) [2] of 537 MFI.

For “HuMab antibody directed against Keyhole Limpet Hemocyanin (alpha-KLH)”, the EC50 [3] was 2.57 µg/mL, the MFI [4] was 4.74 MFI and the MFI [5] was 4.76 MFI. The Bmax (OD405) [6] was 3.31 OD405, the C3c deposition ELISA, Bmax (OD405) [7] was 2.63 OD405 and the C3c deposition ELISA, EC50 [7] was 2.16 µg/mL.

Work on “Human IgG1 (The Binding Site), control antibody” yielded an EC50 [3] of 4.17 µg/mL, a Bmax (OD405) [6] of 2.69 OD405 and a C3c deposition ELISA, Bmax (OD405) [7] of 2.54 OD405. The C3c deposition ELISA, EC50 [7] was 5.45 µg/mL.

In the case of “human IgG4 (The Binding Site), control antibody”, the Bmax (OD405) [6] is reported as 0.353 OD405 and the C3c deposition ELISA, Bmax (OD405) [7] is reported as 0.095 OD405.

Work on “TAG34, anti-human OX40L monoclonal antibody” yielded an IC50 (read off the curve) [8] of 1 µg/mL, an MFI [9] of 30.8 MFI and an IC50 [10] of 7 nM. For the same substance, the MFI [11] was 31.8 MFI, the EC50 (read off the curve) [12] was 2 µg/mL and the MFI [13] was 25.3 MFI. For the same substance, the MFI [14] was 7.39 MFI, the MFI [15] was 9.44 MFI and the MFI [16] was 14.9 MFI. For the same substance, the MFI [17] was 8.97 MFI, the IC50, IL-2 release of PHA-activated PBL co-stimulated with K562 OX40L cells [18] was 70 nM and the MFI [19] was 31.6 MFI. The Kd [20] was 0.375 nM, the koff [20] was 3.32e-05 s⁻¹ and the kon [20] was 88400 M⁻¹ s⁻¹.
